Experimental data reported in paper PMC6265464.
One block for each molecule: values may come before it.

Key:
[1] = target: full-length 3× Flag-tagged R192F hFEN1 (human) (UniProt P39748); assay: co-IP
[2] = target: hFEN1 D181A/R192F (1-333) (Homo sapiens, UniProt P39748 1-333, D181A;R192F); assay: X-ray crystallography
Chain of hFEN1 D181A/R192F (1-333) (P39748 1-333 D181A/R192F): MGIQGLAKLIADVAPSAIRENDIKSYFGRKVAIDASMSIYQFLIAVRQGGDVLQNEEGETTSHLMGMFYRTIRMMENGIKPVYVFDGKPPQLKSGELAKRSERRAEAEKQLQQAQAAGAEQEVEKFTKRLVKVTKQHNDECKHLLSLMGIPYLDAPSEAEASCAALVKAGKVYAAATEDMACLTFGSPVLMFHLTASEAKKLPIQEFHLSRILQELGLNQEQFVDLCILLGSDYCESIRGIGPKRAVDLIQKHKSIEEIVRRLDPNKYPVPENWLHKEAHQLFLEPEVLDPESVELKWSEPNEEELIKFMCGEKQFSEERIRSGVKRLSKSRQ

Chain of full-length 3× Flag-tagged R192F hFEN1 (human) (P39748 whole entry R192F): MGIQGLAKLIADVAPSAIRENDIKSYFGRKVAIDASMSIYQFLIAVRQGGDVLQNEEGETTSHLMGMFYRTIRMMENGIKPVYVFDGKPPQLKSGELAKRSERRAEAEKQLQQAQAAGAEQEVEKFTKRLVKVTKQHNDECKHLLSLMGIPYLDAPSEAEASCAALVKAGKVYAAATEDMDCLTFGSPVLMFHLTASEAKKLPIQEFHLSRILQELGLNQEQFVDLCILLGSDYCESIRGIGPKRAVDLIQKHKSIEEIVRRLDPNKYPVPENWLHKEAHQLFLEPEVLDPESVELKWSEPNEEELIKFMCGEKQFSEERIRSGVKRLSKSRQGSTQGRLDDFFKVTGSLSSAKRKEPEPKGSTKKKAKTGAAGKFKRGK

percent lower interaction than with wild-type hFEN1 [1]: 70%
Molecule: Cyclin E (from UniProt P24864 1-410) (natural protein)

percent lower interaction than with wild-type hFEN1 [1]: 40%
Molecule: CDK2 (from UniProt P24941 1-298) (enzyme)

B1: double-flap DNA (D181A/R192F crystal) (dsDNA)
DNA 1: CCTCTGCCTCAAGACGGG
DNA 2: GCCCGTCC
DNA 3: ACTTTGAGGCAGAG
binding result [2]: binds
